Assay results taken from patent US20180100009A1 (VHSQUARED, published 2018).

Assays:
[1] = biological target: T1, TcdA from C. difficile ribotype 087 (Clostridium difficile ribotype 087 …, UniProt P16154 1-2710); assay: sandwich ELISA
T1 construct: also called 087 TcdA; TcdA 10463 (087)

[2] = biological target: T2, TcdB from C. difficile ribotype 087 (Clostridium difficile ribotype 087, UniProt P18177 2-2366); assay: ELISA: TcdB coat, quadrahead, detected with rabbit polyclonal anti-ICVD
T2 construct: also called 087 TcdB

[3] = biological target: T3, TcdA from C. difficile ribotype 027 (Clostridium difficile ribotype 027 …, UniProt P16154 1-2710); assay: sandwich ELISA: TcdB coat, quadrahead, TcdA 0-20 ng/ml, rabbit anti-TcdA pAb
T3 construct: also called 027 TcdA; TcdA R20291 (027)

[4] = biological target: T3, TcdA from C. difficile ribotype 027; assay: sandwich ELISA

Measured: binding result

B1: ID-1C (bispecific antibody)
chain: DVQLQESGGGLVQAGGSLRLSCAASGATSDVYAIGWFRQVPGKEREFVATINRSGSDSYYADSVKGRFTISRDNAKNTVYLQMNSLKPEETAVYYCAASRSDCIGYGCRRVSQDYWGQGTQVTVSSGGGGSGGGGSGGGGSGGGGSDVQLQESGGGLVQAGGSLRLSCVISGMDFSHKPAGWFRQAPGKEREFVASITTRASTHYADSVKGRFTISRDNAKNTVYLEMNSLKPEDTAVYYCNSEYYWGQGTQVTVSSGGGGSGGGGSGGGGSGGGGSDVQLQESGGGLVQAGDSLRLSCAASGATLSSYTIGWFRQAPEKEREFVAGSSRDGRTNYYANSVKGRFTISRDNAKNTVYLQMNSLKPEDTAVYYCAAHTTSGVPVRERSYAYWGQGTQVTVSSGGGGSGGGGSGGGGSGGGGSDVQLQESGGGLVQAGGSLRLSCAASGATFSSYYIGWFRQAPGKEREFVAAINGSGGNRISADSVKGRFTISRDNAKNTVYLQLNSLKPEDTAVYYCAASLTYYGRSARYDYWGQGTQVTVSS
notes: also called 1D-1C
binds: [1] | [2] | [3]

B2: ID-3C (bispecific antibody)
chain: DVQLQESGGGLVQAGDSLRLSCAASGATLSSYTIGWFRQAPEKEREFVAGSSRDGRTNYYANSVKGRFTISRDNAKNTVYLQMNSLKPEDTAVYYCAAHTTSGVPVRERSYAYWGQGTQVTVSSGGGGSGGGGSGGGGSGGGGSDVQLQESGGGLVQAGGSLRLSCAASGATSDVYAIGWFRQVPGKEREFVATINRSGSDSYYADSVKGRFTISRDNAKNTVYLQMNSLKPEETAVYYCAASRSDCIGYGCRRVSQDYWGQGTQVTVSSGGGGSGGGGSGGGGSGGGGSDVQLQESGGGLVQAGGSLRLSCVISGMDFSHKPAGWFRQAPGKEREFVASITTRASTHYADSVKGRFTISRDNAKNTVYLEMNSLKPEDTAVYYCNSEYYWGQGTQVTVSSGGGGSGGGGSGGGGSGGGGSDVQLQESGGGLVQAGGSLRLSCAASGATFSSYYIGWFRQAPGKEREFVAAINGSGGNRISADSVKGRFTISRDNAKNTVYLQLNSLKPEDTAVYYCAASLTYYGRSARYDYWGQGTQVTVSS
binds: [4] | [1] | [2]
